In the supplement of paper PMC9170038:

Columns and labels:
MS2 coat protein [1] = experiment: apparent KD of MS2 coat protein; designed switch direction (-1 OFF switch, 1 ON switch): -1; higher = weaker reporter binding; conditions: Eterna round: R98
Procedure: (§1)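 RNA-MaP: designed FMN/MS2 RNA switches (84 nt design region) are transcribed on-chip within common flanks and titrated with SNAP-549-labelled MS2 coat protein (about 1-3000 nM) in 100 mM Tris pH 7.5, 80 mM KCl, 4 mM MgCl2, without or with 200 uM FMN. Median apparent KD per design; activation ratio = KD,OFF / KD,ON.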

MS2 coat protein [2] = experiment: apparent KD of MS2 coat protein; designed switch direction (-1 OFF switch, 1 ON switch): 1; higher = weaker reporter binding; conditions: Eterna round: R98
Procedure: as §1

| Sequence | apparent KD of MS2 coat protein (MS2 coat protein [1]; input ligand: FMN 200 uM) | apparent KD of MS2 coat protein (MS2 coat protein [1]; input ligand: none) | apparent KD of MS2 coat protein (MS2 coat protein [2]; input ligand: FMN 200 uM) | apparent KD of MS2 coat protein (MS2 coat protein [2]; input ligand: none) |
| --- | --- | --- | --- | --- |
| AACCUGACAUAAUAAUGUAGAAAUACAUGAGGAUCACCCAUGUAGGAUAUGCAGUGGAAUACACUGCAGAAGGACAUAGUCAGG [Exclusion NG 3/8-B1] | 21.9 nM | 14.8 nM | – | – |
| ACAUGGAAGCGAGGAUAUGCGGCGGAUUUAAACGCAGAAGGCGUUUAUUUAACUCGCAAUAACAUGAGGAUCACCCAUGUAUAA [AK-NGROCr2-ExNG1-5.1] | 59.4 nM | 55.9 nM | – | – |
| CUGGUGAUGUAAGGAUAUGCUGAGGAUAACUCAGCAGAAGGUACAUGAGGAUCACCCAUGUAAAUGAAAGAUAAUAAACACCAG [Excusion NG 1/16-B2] | 30.9 nM | 15.9 nM | – | – |
| GAUACAUAGCAAGGAUAUCCACAUGAGGAUCACCCAUGUGCGUAAUCUGGGCGGUGGAAGAAAGUGGAGAAGGUGUUAGGUUGA [Atia] | 106 nM | 64.2 nM | – | – |
| GGAUAACAUGUAGGAUAUCCAGCAUUGACCAUCGGAGAAGGACAUGAGGAUCACCCAUGUACCGAUACAAUGGAAUAAGGGAAU [xclu_NG1_cac3] | 17.9 nM | 15.4 nM | – | – |
| GGUUGUUACGCAGGAUAUUGCCAACAGGCAGUGGGAUAUCCGAAAGGAGAAGGUUCGCCAACAGGCGAGAAGGGCGGGUUAACC [pwkr exNG2 2xF7 2FMN.10.7] | 94 nM | 400 nM | – | – |
| UAAUAAUAAUAAUACGUCAAUUACAUGAGGAUCACCCAUGUAUAGGAUAUGCAGUGGAAUACACUGCAGAAGGAUACAAAGACG [Exclusion NG 3/3-B1] | 22.8 nM | 19.6 nM | – | – |
| UGUAAAAUUGAUCCUGCAAGUACAUGAGGAUCACCCAUGUGCUAGGAUAUCGCUCAGCUAAAGACCGAGAAGGAGCACAAUGUA [Adiraat] | 67.1 nM | 27.9 nM | – | – |
| UUAUGAGCGAUAGGAUAUACUGAGAUUGAAUGGGUAGAAGGAUCAAUCGUGUGGAAGACAUGAGGAUCACCCAUGUUACGGGCC [SameState #75 NG1] | – | – | 510 nM | 221 nM |
| UUGGUUCUCGUAGGAUAUGUAGGAUAUGCCUACAUGAGGAUCACCCAUGUUCGCAUGGCAGAAGGACAGAAGGACGAUCACCAU [pwkr ssNG2 2FMN +1F5.17] | – | – | 20.8 nM | 288 nM |
